According to the Human Domainome abundance scans (Beltran et al. 2025):
± gives the uncertainty stated by the source.

B1: Receptor-interacting serine/threonine-protein kinase 2, residues 438 to 518; numbered along this chain, O43353 (parent)
chain: QWIQSKREDIVNQMTEACLNQSLDALLSRDLIMKEDYELVSTKPTRTSKVRQLLDTTDIQGEEFAKVIVQKLKDNKQMGLQ

Variants of: B1
Test: abundance fitness (aPCA) (normalised: wild type 0, dead -1); higher = more abundant; growth selection in yeast, the domain comes from the species named
Details: Homo sapiens

Point of comparison: QWIQSKREDIVNQMTEACLNQSLDALLSRDLIMKEDYELVSTKPTRTSKVRQLLDTTDIQGEEFAKVIVQKLKDHKQMGLQ [N75H], abundance fitness -0.024 ± 0.095. Against it:
- QWIQSKREDIVNQMTEACLNQSLDALLSRDLIMKEDYELVSTKPTRTSKVRQLLDTTDSQGEEFAKVIVQKLKDNKQMGLQ [I59S] — within error, -0.29 ± 0.27
- QWIQSKREDIVNQMTEACLNQSLDALLSRDLIMKEDYELVSTKPTRTSKVRQDLDTTDIQGEEFAKVIVQKLKDNKQMGLQ [L53D] — lower, -0.689 ± 0.21
- QWIQSKREDIVNQMTEACLNQSLDALLSRDLIMKEDYELVSTKPTRTSKVRQLLDTTCIQGEEFAKVIVQKLKDNKQMGLQ [D58C] — within error, 0.035 ± 0.096
- QWIQSKREQIVNQMTEACLNQSLDALLSRDLIMKEDYELVSTKPTRTSKVRQLLDTTDIQGEEFAKVIVQKLKDNKQMGLQ [D9Q] — within error, -0.151 ± 0.077
- QWIQSKREDIVNQMTEACLNQSLDALCSRDLIMKEDYELVSTKPTRTSKVRQLLDTTDIQGEEFAKVIVQKLKDNKQMGLQ [L27C] — lower, -0.668 ± 0.16
- QWIQSKREDIVNQMTEICLNQSLDALLSRDLIMKEDYELVSTKPTRTSKVRQLLDTTDIQGEEFAKVIVQKLKDNKQMGLQ [A17I] — lower, -0.569 ± 0.21
- QWIQSKREDIVNQMTEACLNQSLDASLSRDLIMKEDYELVSTKPTRTSKVRQLLDTTDIQGEEFAKVIVQKLKDNKQMGLQ [L26S] — lower, -0.419 ± 0.069
- QWIQSKREDIVNQMAEACLNQSLDALLSRDLIMKEDYELVSTKPTRTSKVRQLLDTTDIQGEEFAKVIVQKLKDNKQMGLQ [T15A] — lower, -0.645 ± 0.11
- QWIQSKREDIVNQMTEACLNQSLDALLSRDLIMKEDYELVSTKPTRTSKVRQLLDTTDIQGEEFAKVIVQKLKDKKQMGLQ [N75K] — lower, -0.535 ± 0.14
- QWIQSKREDIVNQMTEACLNQSLDALLSRDLIMKEDHELVSTKPTRTSKVRQLLDTTDIQGEEFAKVIVQKLKDNKQMGLQ [Y37H] — lower, -0.568 ± 0.23
- QWIQSKREDIVNQMTEACLNQSLDALLSRDLIMKEDYELVSTKPTRTSKTRQLLDTTDIQGEEFAKVIVQKLKDNKQMGLQ [V50T] — lower, -0.505 ± 0.095
- QWIQSKREDIVNQMTEACLNQSLDALLSRDLIMKEDYELVSTKPTRTSKVRQLLDTTDIQGEEFAKVIVQKLFDNKQMGLQ [K73F] — within error, -0.609 ± 0.49
- QWIQSKREDIVNQMTEACLNQSLDALLSRDLIMKEDYELVSTKPTRTSKVRQLLDTTDIQGEEFAKVIVQKLEDNKQMGLQ [K73E] — within error, 0.072 ± 0.099
- QWIQSKREDIVNQMTEACLNQSLDALLSRDLIMKEDYELVSTKPTRTSKVRQLLDTTDIQGEEFAKVIVQKLVDNKQMGLQ [K73V] — lower, -0.191 ± 0.057
- QWIQSKREDIVNQMTEACLNQSLDALLSRDLIMKEDYELVSTKPTRTSKVRQLLDTTDIQGEEFAKVIVQKLLDNKQMGLQ [K73L] — within error, -0.064 ± 0.053
- QWIQSKREDIVNQMTEACLNQSLDALLSRDLIMKEDYELVSTKPTRTSKVRDLLDTTDIQGEEFAKVIVQKLKDNKQMGLQ [Q52D] — lower, -0.526 ± 0.25
- QWIQSKREDIVNQMTEACLNQSLDALLSRDLIMKYDYELVSTKPTRTSKVRQLLDTTDIQGEEFAKVIVQKLKDNKQMGLQ [E35Y] — lower, -0.514 ± 0.21
- QWIQSKREDIVNQMTEACLNQSLDALLSRDLIMKEDYELVSTKPTRTSKVRQLLVTTDIQGEEFAKVIVQKLKDNKQMGLQ [D55V] — lower, -0.27 ± 0.065
- QWIQSKREDIVNQMTEACLNQSLDALLSRDLTMKEDYELVSTKPTRTSKVRQLLDTTDIQGEEFAKVIVQKLKDNKQMGLQ [I32T] — lower, -0.594 ± 0.12
- QWIQSKREDIVNQMTEACLNQSLDALLSRDLCMKEDYELVSTKPTRTSKVRQLLDTTDIQGEEFAKVIVQKLKDNKQMGLQ [I32C] — lower, -0.679 ± 0.14
- QWIQSKREDIVNQMTEACTNQSLDALLSRDLIMKEDYELVSTKPTRTSKVRQLLDTTDIQGEEFAKVIVQKLKDNKQMGLQ [L19T] — within error, -0.112 ± 0.3
- QWIQSKREDIVNQMTEACLNQSLDALLSRDLIMKEDYELVSTKPTRTSKVRQLFDTTDIQGEEFAKVIVQKLKDNKQMGLQ [L54F] — lower, -0.936 ± 0.31
- QWIQSKREDIVNQMTEACLNQSLDALLSRDLIMKEDYELVSTKPTRTSKVRQLHDTTDIQGEEFAKVIVQKLKDNKQMGLQ [L54H] — lower, -0.542 ± 0.14
- QWIQSKREDIVNQMTEACLNQSLDALLSRDLIMKEDYELVSTKPTRTSKVRQLVDTTDIQGEEFAKVIVQKLKDNKQMGLQ [L54V] — lower, -0.777 ± 0.097
- QWIQSKREDIVNQMTEACLNQSGDALLSRDLIMKEDYELVSTKPTRTSKVRQLLDTTDIQGEEFAKVIVQKLKDNKQMGLQ [L23G] — lower, -0.67 ± 0.11
- QWIQSKREDIVNQMTEACLNQSKDALLSRDLIMKEDYELVSTKPTRTSKVRQLLDTTDIQGEEFAKVIVQKLKDNKQMGLQ [L23K] — lower, -0.559 ± 0.3
- QWIQSKREDIVNQMTEACLNQSLDALLSRDLIMKEDYELVSTKPTRTSKVNQLLDTTDIQGEEFAKVIVQKLKDNKQMGLQ [R51N] — within error, -0.207 ± 0.11
- QWIQSKREDIVNQMTEACLNQSLDALLSRDLIMKEDYELVSTKATRTSKVRQLLDTTDIQGEEFAKVIVQKLKDNKQMGLQ [P44A] — within error, -0.181 ± 0.079
- QWIQSKREDIVNQMTEACLNQSLDALLSRDLIMKEDYELVSTKPTRTSKVRQLLDTTDIQGAEFAKVIVQKLKDNKQMGLQ [E62A] — lower, -0.555 ± 0.067
- QWIQSKREDIVNQMTEACLNQSLDALLSRDLIMKEDYELVSTKPTRTSKVRQLLDTTDIQGIEFAKVIVQKLKDNKQMGLQ [E62I] — lower, -0.912 ± 0.31
- QWIQSKREDIVNQMTEACLNQSLDALLSSDLIMKEDYELVSTKPTRTSKVRQLLDTTDIQGEEFAKVIVQKLKDNKQMGLQ [R29S] — lower, -0.297 ± 0.07
- QWIQSKREDIVNQMTEACLNQSLDALLSGDLIMKEDYELVSTKPTRTSKVRQLLDTTDIQGEEFAKVIVQKLKDNKQMGLQ [R29G] — lower, -0.238 ± 0.062
- QWIQSKREDIVNQMTEACLNQSLDALLSLDLIMKEDYELVSTKPTRTSKVRQLLDTTDIQGEEFAKVIVQKLKDNKQMGLQ [R29L] — within error, 0.01 ± 0.07
